PMC5019495

Key:
[1] = target: Siz1^(167–508)-ΔN18Smt3^K19R/D68RΔGG97/98-L-E-His6 (yeast) (UniProt Q04195)
Siz1^(167–508) (yeast) = Siz1^(167–508) (yeast) (UniProt Q04195)
[2] = target: Siz1^(167–449)-ΔN18Smt3^K19RΔGG97/98-L-E-His6 (yeast) (UniProt Q04195)
[3] = target: Siz1^(167–449)-ΔN18Smt3^K19R/D68RΔGG97/98-L-E-His6 (yeast) (UniProt Q04195)
Siz1^(167–449) (yeast) = Siz1^(167–449) (yeast) (UniProt Q04195)
Sequence of Siz1^(167–449) (yeast) (Q04195 167-449): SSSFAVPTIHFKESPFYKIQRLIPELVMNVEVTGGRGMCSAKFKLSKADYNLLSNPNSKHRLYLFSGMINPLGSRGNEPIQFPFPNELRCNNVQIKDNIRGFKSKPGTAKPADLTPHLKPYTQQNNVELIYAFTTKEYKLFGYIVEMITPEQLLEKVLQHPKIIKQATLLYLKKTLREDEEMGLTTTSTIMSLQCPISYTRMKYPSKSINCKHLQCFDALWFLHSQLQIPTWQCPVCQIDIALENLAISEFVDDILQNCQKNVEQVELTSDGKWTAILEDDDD

Sequence of Siz1^(167–508) (yeast) (Q04195 167-508): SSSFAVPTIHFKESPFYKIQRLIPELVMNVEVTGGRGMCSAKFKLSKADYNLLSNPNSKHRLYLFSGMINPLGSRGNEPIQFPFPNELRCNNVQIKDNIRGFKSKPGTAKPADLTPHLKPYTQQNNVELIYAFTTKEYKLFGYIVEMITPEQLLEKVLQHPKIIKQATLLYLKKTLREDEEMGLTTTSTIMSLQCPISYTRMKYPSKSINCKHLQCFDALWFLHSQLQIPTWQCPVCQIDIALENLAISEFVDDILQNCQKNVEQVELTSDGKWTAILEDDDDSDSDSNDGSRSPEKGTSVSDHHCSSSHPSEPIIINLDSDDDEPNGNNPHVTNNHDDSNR
Sequence of Siz1^(167–449)-ΔN18Smt3^K19R/D68RΔGG97/98-L-E-His6 (yeast) (Q04195 whole entry, looked up, stated change not applied, tested part not stated): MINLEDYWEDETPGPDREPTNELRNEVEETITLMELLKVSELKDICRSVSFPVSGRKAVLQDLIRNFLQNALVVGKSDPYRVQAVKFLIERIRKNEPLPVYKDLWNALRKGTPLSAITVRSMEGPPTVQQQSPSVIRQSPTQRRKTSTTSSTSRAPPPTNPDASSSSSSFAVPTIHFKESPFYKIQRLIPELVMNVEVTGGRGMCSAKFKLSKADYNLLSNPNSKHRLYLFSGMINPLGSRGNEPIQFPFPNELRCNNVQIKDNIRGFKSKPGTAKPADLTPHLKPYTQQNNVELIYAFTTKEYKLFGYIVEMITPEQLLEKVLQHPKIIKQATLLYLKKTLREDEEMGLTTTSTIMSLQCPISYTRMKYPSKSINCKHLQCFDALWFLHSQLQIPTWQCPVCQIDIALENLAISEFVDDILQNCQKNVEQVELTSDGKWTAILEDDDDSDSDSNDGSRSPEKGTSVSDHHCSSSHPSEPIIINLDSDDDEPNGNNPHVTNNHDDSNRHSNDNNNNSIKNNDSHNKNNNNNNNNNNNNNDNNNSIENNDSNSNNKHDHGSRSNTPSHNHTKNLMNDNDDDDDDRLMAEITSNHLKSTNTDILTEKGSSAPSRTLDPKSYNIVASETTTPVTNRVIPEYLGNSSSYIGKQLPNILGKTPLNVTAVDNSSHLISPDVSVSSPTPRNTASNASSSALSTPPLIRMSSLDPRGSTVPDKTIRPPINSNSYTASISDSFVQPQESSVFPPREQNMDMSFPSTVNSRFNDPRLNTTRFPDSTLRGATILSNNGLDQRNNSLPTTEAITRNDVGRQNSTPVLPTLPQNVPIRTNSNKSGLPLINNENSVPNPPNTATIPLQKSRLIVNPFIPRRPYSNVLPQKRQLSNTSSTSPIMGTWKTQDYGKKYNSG
Sequence of Siz1^(167–508)-ΔN18Smt3^K19R/D68RΔGG97/98-L-E-His6 (yeast) (Q04195 whole entry, looked up, stated change not applied, tested part not stated): as above
Sequence of Siz1^(167–449)-ΔN18Smt3^K19RΔGG97/98-L-E-His6 (yeast) (Q04195 whole entry, looked up, stated change not applied, tested part not stated): as above

- Km of the E2-SUMO thioester, K127 product [1]: 2.07 µM
- Km of the E2-SUMO thioester, K127 product, no additional SUMO (Siz1^(167–508) (yeast)): 2.34 µM
- Km of the E2-SUMO thioester, K127 product, with 1.5-fold excess Δ18Smt3ΔGGHIS (Siz1^(167–508) (yeast)): 1.15 µM
- Km of the E2-SUMO thioester, K164 product, no additional SUMO (Siz1^(167–508) (yeast)): 0.91 µM
- Km of the E2-SUMO thioester, K127 product [2]: 0.48 µM
- Km of the E2-SUMO thioester, K127 product [3]: 4.4 µM
- Km of the E2-SUMO thioester, K164 product [3]: 1.02 µM
- Km of the E2-SUMO thioester, K127 product, no additional SUMO (Siz1^(167–449) (yeast)): 1.23 µM
- Km of the E2-SUMO thioester, K127 product, with 1.5-fold excess Δ18Smt3ΔGGHIS (Siz1^(167–449) (yeast)): 1.84 µM
- Km of the E2-SUMO thioester, K164 product, no additional SUMO (Siz1^(167–449) (yeast)): 0.91 µM
- Km of the E2-SUMO thioester, K164 product, with 1.5-fold excess Δ18Smt3ΔGGHIS (Siz1^(167–449) (yeast)): 1.44 µM
Substance: Ubc9^K153R-Smt3^K11C/D68R-Alexa488 thioester (from UniProt P50623 1-157; Q12306 1-101) (complex)
